# Measurements taken from patent publication US20240228579A1 (Innovent, published 2024).
# Where a chain is given by its changes, count along the chain named. Numbers in names are those of the source.
# T1: Claudin18.2 (cp0007, Genscript) (UniProt P56856-2 1-261, limits assumed)
# T1 construct: Bought antigen used in BLI; also called Claudin18.2 antigen; the antigen
# T1 sequence (looked up): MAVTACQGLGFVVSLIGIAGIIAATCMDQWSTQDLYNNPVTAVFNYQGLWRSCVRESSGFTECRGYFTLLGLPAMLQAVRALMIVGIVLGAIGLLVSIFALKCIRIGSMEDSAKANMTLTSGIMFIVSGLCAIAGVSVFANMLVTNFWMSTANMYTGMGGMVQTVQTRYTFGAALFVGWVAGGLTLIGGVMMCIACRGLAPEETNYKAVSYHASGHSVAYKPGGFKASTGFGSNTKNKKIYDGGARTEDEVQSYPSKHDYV
# T2: Human CD32A/FCGR2A protein (167Arg) (human, UniProt P12318 34-218, limits assumed)
# T2 construct: Bought, his-tagged; also called CD32A (R167); CD32A R167; not shown: his tag
# T2 sequence (looked up): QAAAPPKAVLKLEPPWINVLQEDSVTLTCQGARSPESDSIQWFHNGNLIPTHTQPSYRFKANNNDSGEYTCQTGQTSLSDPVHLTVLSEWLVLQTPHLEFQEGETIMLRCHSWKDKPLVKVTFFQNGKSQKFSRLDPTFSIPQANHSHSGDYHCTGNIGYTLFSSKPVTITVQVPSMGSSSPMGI
# T3: Human CD32B/FCGR2B protein (human, UniProt P31994 43-217, limits assumed)
# T3 construct: Bought, his-tagged; also called FcγRIIb; not shown: his tag
# T3 sequence (looked up): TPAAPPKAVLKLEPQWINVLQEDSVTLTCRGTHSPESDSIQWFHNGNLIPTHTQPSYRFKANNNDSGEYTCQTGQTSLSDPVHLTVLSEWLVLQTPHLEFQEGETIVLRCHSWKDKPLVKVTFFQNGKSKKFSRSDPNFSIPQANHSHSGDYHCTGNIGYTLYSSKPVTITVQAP
# T4: Human CD32A/FCGR2A protein (167his) (human, UniProt P12318 34-218, limits assumed)
# T4 construct: Bought, his-tagged; also called CD32A (H167); CD32A H167; not shown: his tag
# T4 sequence (looked up): T2 sequence (looked up) with R134H
# B1: Fcmut-08 (antibody, human IgG1, kappa, L234A L235A)
# heavy: QVQLVQSGAEVKKPGSSVKVSCKASGYSFSSYNIHWVRQAPGQGLEWMGYIAPFQGDSRYNQKFKGRVTITADKSTSTAYMELSSLRSEDTAVYYCARLNRGNSLDYWGQGTLVTVSSASTKGPSVFPLAPSSKSTSGGTAALGCLVKDYFPEPVTVSWNSGALTSGVHTFPAVLQSSGLYSLSSVVTVPSSSLGTQTYICNVNHKPSNTKVDKKVEPKSCDKTHTCPPCPAPEAAGGPSVFLFPPKPKDTLMISRTPEVTCVVVDVSHEDPEVKFNWYVDGVEVHNAKTKPREEQYNSTYRVVSVLTVLHQDWLNGKEYKCKVSNKALPIEKTISKAKGQPREPQVYTLPPSREEMTKNQVSLTCLVKGFYPSDIAVEWESNGQPENNYKTTPPVLDSDGSFFLYSKLTVDKSRWQQGNVFSCSVMHEALHNHYTQKSLSLSPGK
# light: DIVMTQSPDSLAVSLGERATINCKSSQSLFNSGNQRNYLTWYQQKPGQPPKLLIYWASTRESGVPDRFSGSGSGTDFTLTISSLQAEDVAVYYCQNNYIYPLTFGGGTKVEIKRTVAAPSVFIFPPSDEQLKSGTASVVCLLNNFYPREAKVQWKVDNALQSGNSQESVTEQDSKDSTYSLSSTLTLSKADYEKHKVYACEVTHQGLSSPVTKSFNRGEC
# notes: IgG1-mut of Fcmut-01: L234A + L235A + deletion of 329 and 330 (EU index); also called Fcmut-8
# B2: Fcmut-07 (antibody, human IgG1, kappa, L234A L235A)
# heavy: QVQLVQSGAEVKKPGSSVKVSCKASGYSFSSYNIHWVRQAPGQGLEWMGYIAPFQGDSRYNQKFKGRVTITADKSTSTAYMELSSLRSEDTAVYYCARLNRGNSLDYWGQGTLVTVSSASTKGPSVFPLAPSSKSTSGGTAALGCLVKDYFPEPVTVSWNSGALTSGVHTFPAVLQSSGLYSLSSVVTVPSSSLGTQTYICNVNHKPSNTKVDKKVEPKSCDKTHTCPPCPAPEAAGGPSVFLFPPKPKDTLMISRTPEVTCVVVDVSHEDPEVKFNWYVDGVEVHNAKTKPREEQYNSTYRVVSVLTVLHQDWLNGKEYKCKVSNKALGPIEKTISKAKGQPREPQVYTLPPSREEMTKNQVSLTCLVKGFYPSDIAVEWESNGQPENNYKTTPPVLDSDGSFFLYSKLTVDKSRWQQGNVFSCSVMHEALHNHYTQKSLSLSPGK
# light: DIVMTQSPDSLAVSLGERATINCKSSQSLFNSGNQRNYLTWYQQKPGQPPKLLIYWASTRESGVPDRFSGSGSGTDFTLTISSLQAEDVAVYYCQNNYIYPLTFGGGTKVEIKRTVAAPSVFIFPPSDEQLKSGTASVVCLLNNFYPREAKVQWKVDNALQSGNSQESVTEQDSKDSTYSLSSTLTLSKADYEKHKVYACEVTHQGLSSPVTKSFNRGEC
# notes: IgG1-mut of Fcmut-01: L234A + L235A + deletion of 329 + G at 330 (EU index)
# Key:
# [1] = target: T5, human C1q (human, UniProt P02745 23-245; P02746 28-253; P02747 29-245); experiment: BLI (Octet), biotinylated antibody on SA sensor, C1q 40 nM
# T5 construct: Bought C1q (Complement Technology); also called C1q antigen
# Protocol: (§1) The antibody was diluted to approximately 100 nM, and C1q (Δ099, Complement Technology) was diluted to 40 nM.
# (§2) Detection was conducted using Fortebio Octet Red96e, and the sensors were arranged according to the positions of the samples. […] After the experiment was completed, KD values were analyzed using ForteBio Octet analysis software, the coordinate axis data were derived, and Graphpad Prism 8 software was used for plotting.
# [2] = target: T1, Claudin18.2 (cp0007, Genscript); experiment: BLI (Octet), antibody on AHC sensor, Claudin18.2 100 nM
# Protocol: The antibody and Claudin18.2 (cp0007, Genscript) were diluted to 100 nM, respectively.
# Detection was conducted using Fortebio Octet Red96e, and the sensors were arranged according to the positions of the samples. […] After the experiment was completed, KD values were analyzed using ForteBio Octet analysis software.
# [3] = target: T6, Human FcRn/FCGRT & B2M heterodimeric protein (human, UniProt P55899 24-297; P61769 21-119); experiment: SPR (Biacore T200), FcRn captured, antibody in flow, pH 6.0; pH 6.0
# T6 construct: Bought heterodimer with His and Strep II tags
# Description: (§3) The specific procedures were as follows: Each of FcγR and FcRn proteins (for information of each Fc receptor, see Table 2 below) containing a histidine tag was captured to the chip surface to which anti-histidine antibodies were coupled, and the binding and dissociation between the proteins on the chip surface and antibodies in the mobile phase were detected to obtain affinity and kinetic constants.
# (§4) Affinity assay: Each cycle included capture of the receptor, binding of a certain concentration of the antibody carrying the Fc region mutation of the present application, and regeneration of the chip. […] In each cycle, the antibody mutant solution flowed over the chip surface at a flow rate of 30 μL/min, with the binding time of 60 s and the dissociation time of 60 s. […] The obtained data were analyzed using Biacore T200 analysis software (version number 3.1) and using an analysis 1:1 binding or homeostasis analysis model to obtain the corresponding results.
# [4] = target: T2, Human CD32A/FCGR2A protein (167Arg); experiment: SPR (Biacore T200);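 also: His-tagged Fc receptors captured on an anti-His antibody chip, Fc-variant antibodies flowed as analyte, 60 s association and 60 s dissociation, fitted by 1:1 or steady-state model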
# Description: as §3, §4
# [5] = target: T7, Human CD64/FCGR1A protein (human, UniProt P12314 16-288, limits assumed); experiment: SPR (Biacore T200);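 also: His-tagged Fc receptors captured on an anti-His antibody chip, Fc-variant antibodies flowed as analyte, 60 s association and 60 s dissociation, fitted by 1:1 or steady-state model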
# T7 construct: Bought, his-tagged; also called FcγRI; not shown: his tag
# [6] = target: T8, Human FcγRIIIB/CD16B (NA2) (human, UniProt O75015 17-200, limits assumed); experiment: SPR (Biacore T200);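 also: His-tagged Fc receptors captured on an anti-His antibody chip, Fc-variant antibodies flowed as analyte, 60 s association and 60 s dissociation, fitted by 1:1 or steady-state model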
# T8 construct: Bought, his-tagged; not shown: his tag
# [7] = target: T9, Human FcγRIIIA/CD16A (F176) protein (human, UniProt P08637 17-208); experiment: SPR (Biacore T200);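 also: His-tagged Fc receptors captured on an anti-His antibody chip, Fc-variant antibodies flowed as analyte, 60 s association and 60 s dissociation, fitted by 1:1 or steady-state model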
# T9 construct: Bought, his-tagged; not shown: his tag
# [8] = target: T3, Human CD32B/FCGR2B protein; experiment: SPR (Biacore T200)
# Description: as §3, §4
# [9] = target: T10, Human FcγRIIIB/CD16B (NA1) (human, UniProt O75015 17-200, limits assumed); experiment: SPR (Biacore T200)
# T10 construct: Bought, his-tagged; not shown: his tag
# [10] = target: T11, Human FcγRIIIA/CD16A (V176) protein (human, UniProt P08637 17-208); experiment: SPR (Biacore T200)
# T11 construct: Bought, his-tagged; not shown: his tag
# [11] = target: T4, Human CD32A/FCGR2A protein (167his); experiment: SPR (Biacore T200)
# Description: as §3, §4
# [12] = target: T5, human C1q; experiment: BLI (Octet), biotinylated antibody on SA sensor
# Protocol: as §1, §2
# T5 sequence (P02745 23-245 limits assumed, chain 1 of 3): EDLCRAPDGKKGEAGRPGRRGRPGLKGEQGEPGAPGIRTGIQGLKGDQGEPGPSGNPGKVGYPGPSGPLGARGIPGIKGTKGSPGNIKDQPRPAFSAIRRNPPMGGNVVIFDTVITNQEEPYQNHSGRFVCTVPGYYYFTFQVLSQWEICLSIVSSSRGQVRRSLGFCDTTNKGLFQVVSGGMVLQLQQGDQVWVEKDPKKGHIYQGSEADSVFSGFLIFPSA
# T5 sequence (P02746 28-253 limits assumed, chain 2 of 3): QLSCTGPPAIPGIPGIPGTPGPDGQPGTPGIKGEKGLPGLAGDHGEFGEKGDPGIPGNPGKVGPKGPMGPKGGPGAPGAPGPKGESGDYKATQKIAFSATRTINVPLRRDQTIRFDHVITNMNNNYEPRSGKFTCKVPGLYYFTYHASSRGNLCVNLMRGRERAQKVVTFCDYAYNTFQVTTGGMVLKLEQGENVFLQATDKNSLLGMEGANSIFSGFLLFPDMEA
# T5 sequence (P02747 29-245 limits assumed, chain 3 of 3): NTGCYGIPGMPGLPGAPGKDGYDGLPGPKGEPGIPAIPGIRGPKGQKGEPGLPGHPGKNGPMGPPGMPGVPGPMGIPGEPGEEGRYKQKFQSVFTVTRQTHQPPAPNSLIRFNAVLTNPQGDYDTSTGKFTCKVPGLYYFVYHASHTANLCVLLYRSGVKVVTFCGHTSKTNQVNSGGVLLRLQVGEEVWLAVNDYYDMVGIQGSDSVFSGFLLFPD
# T6 sequence (P55899 24-297 limits assumed, chain 1 of 2): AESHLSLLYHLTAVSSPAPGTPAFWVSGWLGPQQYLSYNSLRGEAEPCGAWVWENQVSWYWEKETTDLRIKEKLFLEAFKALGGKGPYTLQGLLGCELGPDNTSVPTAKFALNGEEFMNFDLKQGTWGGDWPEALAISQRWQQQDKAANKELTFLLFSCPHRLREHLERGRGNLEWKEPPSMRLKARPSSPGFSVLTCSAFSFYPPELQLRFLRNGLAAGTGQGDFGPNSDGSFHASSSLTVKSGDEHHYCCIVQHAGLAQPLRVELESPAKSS
# T6 sequence (P61769 21-119 limits assumed, chain 2 of 2): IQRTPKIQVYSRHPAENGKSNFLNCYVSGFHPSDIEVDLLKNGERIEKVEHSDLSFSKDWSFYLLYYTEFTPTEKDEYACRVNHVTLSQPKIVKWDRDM
# T11 sequence (P08637 17-208 F176V limits assumed): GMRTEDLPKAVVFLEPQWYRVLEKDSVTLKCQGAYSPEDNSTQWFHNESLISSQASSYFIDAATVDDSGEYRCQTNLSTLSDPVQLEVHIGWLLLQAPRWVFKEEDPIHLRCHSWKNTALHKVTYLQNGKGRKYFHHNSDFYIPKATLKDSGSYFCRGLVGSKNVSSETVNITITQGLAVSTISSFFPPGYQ
# T10 sequence (O75015 other isoform, or with tags, fused parts or gaps limits assumed): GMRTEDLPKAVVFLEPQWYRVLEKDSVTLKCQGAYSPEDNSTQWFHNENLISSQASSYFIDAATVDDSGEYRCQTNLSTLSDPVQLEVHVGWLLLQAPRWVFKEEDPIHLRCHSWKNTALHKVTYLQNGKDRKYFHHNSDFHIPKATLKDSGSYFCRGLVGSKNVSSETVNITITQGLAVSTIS
# T7 sequence (P12314 16-288 limits assumed): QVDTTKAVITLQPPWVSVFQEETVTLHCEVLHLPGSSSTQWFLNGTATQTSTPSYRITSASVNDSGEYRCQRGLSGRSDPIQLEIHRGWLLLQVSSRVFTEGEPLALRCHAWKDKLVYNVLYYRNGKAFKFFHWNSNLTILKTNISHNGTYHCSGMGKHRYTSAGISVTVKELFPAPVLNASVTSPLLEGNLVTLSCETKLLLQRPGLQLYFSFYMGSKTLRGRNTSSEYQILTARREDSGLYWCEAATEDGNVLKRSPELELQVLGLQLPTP
# T8 sequence (O75015 17-200 N65S limits assumed): as the sequence (O75015 other isoform, or with tags, fused parts or gaps limits assumed) above, with R20S, N49S, D66N, V90I counted along it
# T9 sequence (P08637 17-208 limits assumed): as the sequence (P08637 17-208 F176V limits assumed) above, with V160F counted along it
Binder,Response [1] [nm],Kd [2] [nM],Response [2] [nm],koff [2] [s⁻¹],kon [2] [M⁻¹ s⁻¹],Kd [3] [nM],binding result [4],binding result [5],binding result [6],binding result [7],binding result [8],binding result [9],binding result [10],binding result [11],binding result [12]
B1,0.0004,2.41,0.152,0.0002,82900,402,no binding (tested: 400 nM),no binding (tested: 400 nM),no binding (tested: 400 nM),no binding (tested: 400 nM),no binding (tested: 400 nM),no binding (tested: 400 nM),no binding (tested: 400 nM),no binding (tested: 400 nM),no binding (tested: C1q 40 nM)
B2,-0.0134,2.47,0.154,0.0002,80900,374,no binding (tested: 400 nM),no binding (tested: 400 nM),no binding (tested: 400 nM),no binding (tested: 400 nM),no binding (tested: 400 nM),no binding (tested: 400 nM),no binding (tested: 400 nM),no binding (tested: 400 nM),
